Assay results: patent US20080311122A1, “Antagonists of Hmgb1 and/or Rage and Methods of Use Thereof” (Medimmune, LLC, priority 2005, published 2008)

Experiments:
HMG1 peptides [1] = target: T1, HMG1 peptides (Homo sapiens, UniProt P09429); assay: HMG1 B Box and peptide mapping ELISA; type: binding; details: B Box peptide ELISA
T1 sequence (P09429 91-169 P98L): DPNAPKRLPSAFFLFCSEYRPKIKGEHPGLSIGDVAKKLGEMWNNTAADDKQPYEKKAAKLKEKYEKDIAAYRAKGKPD
Protocol: (§1) HMG1 B Box and Peptide Mapping: Individual wells of a 96-well immunoplate (EIA/RIA plate, High binding, Costar) were coated with HMG1 B Box peptide amino acids 91-169 (FIG. 5A) or amino acids 150-183 (FIG. 5B) at 10 μg/ml in PBS at 4° C. overnight. The plate was then blocked with 4% milk powder dissolved in PBS at 37° C. for 1 hour. The blocking solution was removed and replaced with human anti-HMG1 antibodies at various concentrations (see FIGS. 5A-B). The plate was then washed (ELX-405 Plate washer, BIO-TEK) and secondary antibody (anti-human IgG-HRP, PIERCE) was added at a final concentration of 1:125,000 at 37° C. for 1 hour. HRP activity was detected with Sureblue HRP substrate (KPL). Plates were read at 450 nm using a Kinetic Microplate Reader (Molecular Devices). To obtain more detailed peptide mapping information, similar ELISA assays were performed using 16 biotinylated overlapping peptides spanning the HMGB1 protein from amino acid 1 to 215 as follows, maxisorp microtiter plate was coated with 2 μg/ml of NeutroAvidin (Pierce) overnight at 4° C. After washing and blocking with 1% BSA in PBS, the biotinylated peptides were individually added into the avidin coated wells and incubated for 30 min at room temperature. The serial diluted antibody G4, S16 and S6 at the initial concentration at 10 μg/ml were then transferred into the wells followed by adding mouse anti human IgG-HRP conjugate (Pierce). Detection was accomplished by adding 50 μl of tetramethylbenzidine (TMB) substrate (KPL) and the absorbance was read at […]. The peptides used were amino acids: 46-63; 61-78; 76-93; 91-108; 106-123; 136-153; 151-168; 166-183; 179-185; 181-198; and 196-215.

HMG1 peptides [2] = target: T2, HMG1 peptides (Homo sapiens, UniProt P09429); assay: HMG1 B Box and peptide mapping ELISA; type: binding; details: B Box peptide ELISA; remark: listed apart in the source
T2 sequence (P09429 150-183): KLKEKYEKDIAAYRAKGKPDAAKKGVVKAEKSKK
Protocol: as §1

[3] = test system: passive CIA mouse model of arthritis; assay: Passive collagen-induced arthritis (CIA) mouse model; type: in vivo; details: percent protection, isotype control subtracted
Protocol: Induction of Passive Collagen Induced Arthritis (CIA): To establish an arthritis model six-eight week old male DBA/1J mice (Jackson Labs, Bar Harbor, Me.) were used. Generally 5-8 mice per group are used, On day 0, mice were immunized with 2 mg/mouse of anti-collage mAb cocktail (Chemicon # ECM1100, 10 mg/ml) intravenously, i.v. at tail. Mice were subsequently injected with 50 μg LPS/mouse, i.p. on day 3. Each experiment had several groups of animals as follows: groups A-E in experiment 1, groups G-J in experiment 2 and groups L-N). An additional group of mice (groups F, K and O) were untreated as normal controls.
Monitoring Disease: Beginning at day 0 all animals were observed daily to assess the status of the disease in their paws, which was done by assigning a qualitative clinical score to each of the paws. Every day, each animal has its 4 paws scored according to its state of clinical disease. The scoring is done by two observers, with at least one blinded. In addition, each mouse is weighed, to follow body weight changes, at the same time the paws are scored (see FIGS. 6A and 6D)
The grading scale for the 4 lateral digits of each paw are graded as involved or not involved, i.e., 1 or 0. For example, a maximally involved left rear paw would be scored: ankle=3, midfoot=3, digits=4 (clinical score=10 units) We would repeat this for each paw and sum the scores. […]

THP-1 cells = assay: HMG1 binding to THP-1 cells; parameters: species or system human
Protocol: HMG1 binding to THP-1 Cells: Recombinant rat HMGB-1 was labeled using Eu-labelling Kit from PerkinElmer. Molar ratio of HMGB-1 to Eu is 1:5. THP-1 were cultured as the protocol from ATCC. Cells were harvested and suspended at concentration 1×10^6/ml in assay buffer containing 1×DELFIA L*R binding buffer (PerkinElmer), 50% of DELFIA stabilizer (PerkinElmer) and 0.05% of sodium azide. 100 μl of cells (1×10^5) was added into wells in 96 well cell culture plate. The plate was incubated with gentle shaking at 4° C. for one hour. 100 μl of assay buffer containing 2 nM of Europium-labeled HMGB-1 mixed with various concentrations (333, 166.5, 83.25, 41.6, 20.8, 10.4 and 5.2 nM) of human anti-HMGB1 antibodies E11 or G2 or soluble human RAGE-Fc, were added into each wells respectively. After one hour incubation with gentle shaking at 4° C., the cells were washed four times with 1×L*R wash buffer (PerkinElmer) by centrifuging at 1200 rpm×5 min. 200 μl of enhancement solution was added into each well to dissociate and enhance Eu fluorescence at 615 nm. The fluorescence was measured with Wallac Victor Fluorometer. Assay was performed in triplicate and human antibody R3-47 was used the negative isotype control.

B1: S12: human anti-HMG1 antibody; VL/VH aa SEQ ID NO: 62/64 (antibody, listed as Homo sapiens, V domains shown)
VH: EVQLLESGGGLVQPGGSLRLSCAASGFTFSKYIMHWVRQAPGKGLEWVSGIVPSGGLTEYADSVKGRFTISRDNSKNTLYLQMNSLRAEDTATYYCAKEIFGQFDYWGQGTLVTVSS
VL: AQSALTQPPSVSAAPRQRVTISCSGSTSNIGNNAVTWYQYFPGKAPKLLIYSDNQRPSGVPDRFSGSKSGTSASLAITGLQAEDEADYYCQSYDRGLSVVFGGGTKLTVL
HMG1 peptides [1]
  binding to HMG1 peptide 91-169: bind to HMG1 peptide 91-169
HMG1 peptides [2]
  binding to HMG1 peptide 150-183: only S12 binds to HMG1 peptide 150-183

B2: S10: human anti-HMG1 antibody; VL/VH aa SEQ ID NO: 58/60 (antibody, listed as Homo sapiens, V domains shown)
VH: EVQLLESGGGLVQPGGSLRLSCAASGFTFSWYDMWWVRQAPGKGLEWVSWIVPSGGITAYADSVKGRFTISRDNSKNTLYLQMNSLRAEDTATYYCARGNYGPSPFDYWGQGTLVTVSS
VL: AQDIQMTQSPGTLSLSPGERATLSCRATQSVRKNFLAWYQQKPGQAPRLLIYDASSRATGIPDRFSGSGSGTDFTLTISRLEPEDFAVYYCQQYGNSPIIFGQGTRLEIK
HMG1 peptides [1]
  binding to HMG1 peptide 91-169: do not bind either of the HMG1 B Box peptides
HMG1 peptides [2]
  binding to HMG1 peptide 150-183: do not bind either of the HMG1 B Box peptides

B3: S16: human anti-HMG1 antibody, ATCC PTA-6259; VL/VH aa SEQ ID NO: 13/15 (antibody, listed as Homo sapiens, V domains shown)
VH: EVQLLESGGGLVQPGGSLRLSCAASGFTFSWYSMLWVRQAPGKGLEWVSYISPSGGFTNYADSVKGRFTISRDNSKNTLYLQMNSLRAEDTAVYYCARWDYNSGWYYDHWGQGTLVTVSS
VL: AQDIQMTQSPDTLSLSPGERATLSCRASQSVNSRNLAWYQQKPGQAPRLLIYGASTRATGIPDRFSGSVSGTEFTLTISSLQPDDFATYYCQQYNSYFTFGQGTKLEIK
HMG1 peptides [1]
  binding to HMG1 peptide 91-169: bind to HMG1 peptide 91-169
[3]
  in vivo CIA passive: 0%

B4: G9: human anti-HMG1 antibody; VL/VH aa SEQ ID NO: 34/36 (antibody, listed as Homo sapiens, V domains shown)
VH: EVQLLESGGGLVQPGGSLRLSCAASGFTFSSYDMFWVRQAPGKGLEWVSRISPSGGYTYYADSVKGRFTISRDNSKNTLYLQMNSLRAEDTAVYYCARLRYFDSRGYAFDIWGQGTMVTVSS
VL: AQDIQMTQSPGTLSLSPGERATLSCRASQSVRSSYLAWYQQKPGQAPRLLIYGASTRATGIPDRFSGSGSGTDFTLTISRLEPEDFAVYYCQQYGTSRWTFGQGTKVEIK
HMG1 peptides [1]
  binding to HMG1 peptide 91-169: do not bind either of the HMG1 B Box peptides
HMG1 peptides [2]
  binding to HMG1 peptide 150-183: do not bind either of the HMG1 B Box peptides

B5: G2: human anti-HMG1 IgG1 from Fab phage display library; VL/VH aa SEQ ID NO: 30/32 (antibody, listed as Homo sapiens, V domains shown)
VH: EVQLLESGGGLVQPGGSLRLSCAASGFTFSWYKMQWVRQAPGKGLEWVSGISPSGGSTAYADSVKGRFTISRDNSKNTLYLQMNSLRAEDTAVYYCAKMGLFNTGNSYVDYWGQGTLVTVSS
VL: AQSELTQPPSVSEAPGQRVTISCSGSTSNIGNNAVIWYQQLPGKAPKLLIYYDDLLPSGVSDRFSGSKSGTSGSLAISGLQSEDEADYYCASWDDNLNGPLFGGGTKLTVL
HMG1 peptides [1]
  binding to HMG1 peptide 91-169: do not bind either of the HMG1 B Box peptides
HMG1 peptides [2]
  binding to HMG1 peptide 150-183: do not bind either of the HMG1 B Box peptides
THP-1 cells
  block of HMG1 binding to THP-1 cells: block the binding of HMG1 to THP-1 cells
[3]
  in vivo CIA passive: 0%

B6: E11: human anti-HMG1 antibody, recognizes HMG1 A-Box; VL/VH aa SEQ ID NO: 24/26 (antibody, listed as Homo sapiens, V domains shown)
VH: EVQLLESGGGLVQPGGSLRLSCAASGFTFSRYQMNWVRQAPGKGLEWVSSISPSGGHTHYADSVKGRFTISRDNSKNTLYLQMNSLRAEDTAVYYCAKDGRQGKISTVDHWGQGTLVTVSS
VL: AQDIQMTQSPGTLSLSPGERATLSCRASQSVRSNFLAWYQQKPGQAPRLLIYGASRRASGIPDRFSGSGFGADFTLSISRLEPEDFAVYYCQQYGSSPNTFGQGSRVEIK
THP-1 cells
  block of HMG1 binding to THP-1 cells: block the binding of HMG1 to THP-1 cells
